What all share (format): biochemical
Data set [1] in a line: Specific activity with ferulic acid as the substrate. Here is the method:
(§1) Each of the s-IEMTs was isolated following expression in bacterial cells of nucleic acid sequences encoding the enzymes. The isolated enzymes were analyzed for their substrate versatility, specificity and enzyme kinetics on various phenolic substrates.

The nature of data set [2]: Enzyme kinetics, coniferyl alcohol as substrate. Particulars: coniferyl alcohol versus sinapyl alcohol. Here is the method:
as §1

Data set [3] is described as follows: Specific activity with 5-hydroxyl coniferyl alcohol (formation of iso-sinapyl alcohol). Particulars: substrate 5-hydroxyl coniferyl alcohol; product iso-sinapyl alcohol. Here is the method:
as §1
Iso-synapyl alcohol is thought to have the potential to be incorporated into lignin. These two additional specialized IEMT's having eight amino acid substitutions are designated as follows and have the indicated substitutions: […]

The values below come from patent US20140370568A1, “Specialized (iso)eugenol-4-O-methyltransferases (s-IEMTs) and Methods of Making and Using the Same” (Brookhaven Science Associates, LLC, priority 2013, published 2014).

B1: MOMT-5: previously generated modified C. breweri (iso)eugenol-4-O-methyltransferase (m-IEMT), substitutions T133L/E165I/F175I/F166W/H169F (protein, UniProt O04385 3-368, looked up, variant T133L E165I F175I F166W H169F)
(Iso)eugenol …: STGNAEIQIIPTHSSDEEANLFAMQLASAAVLPMALKAAIELDVLEIMAKSVPPSGYISPAEIAAQLPTTNPEAPVMLDRVLRLLASYSVVTYTLRELPSGKVERLYGLAPVCKFLTKNEDGVSLAPFLLLATDKVLLEPWFYLKDAILEGGIPFNKAYGMNIWDYFGTDHRINKVFNKGMSSNSTITMKKILEMYNGFEGLTTIVDVGGGTGAVASMIVAKYPSINAINFDLPHVIQDAPAFSGVEHLGGDMFDGVPKGDAIFIKWICHDWSDEHCLKLLKNCYAALPDHGKVIVAEYILPPSPDPSIATKVVIHTDALMLAYNPGGKERTEKEFQALAMASGFRGFKVASCAFNTYVMEFLKTA
As for B1, the “Specific activity with ferulic acid as the substrate” value in data set [1] was 7.84 nmol/min/mg. The “catalytic efficiency (kcat/Km) for coniferyl alcohol higher than for sinapyl alcohol” value in data set [2] is “less than 3 fold”. Moreover, the “Specific activity with 5-hydroxyl coniferyl alcohol, iso-sinapyl alcohol” value in data set [3] amounted to 43.5 ± 4.0 nmol/mg/min.
